Data taken from patent US20200216495A1 (ADRX, published 2020).
Square brackets hold non-standard residues; d marks the D form. Ends that are not written are not given here.

target: Ac-VQIINK-NH2 (SEQ ID NO: 23) (N-terminal acetyl (Ac); C-terminal amide (NH2)); assay: cell-based or functional assay

Question: For [dL][dK][dI][dK][dI][dH][dY] [lkikihy], which “VQIINK Inhibition IC50” value is on record?
Answer: 1.96 µm

Question: [dW][dK][dL][dW][dL][dR][dW] (not fully specified; printed as wklwlrw) [wklwlrw] was tested. Which “VQIINK Inhibition IC50” value did it give?
Answer: 1.95 µm

Question: Which “VQIINK Inhibition IC50” value does the source give for [dF][dR][dL][dK][dL][dR][dF][dH] [frlklrfh] here?
Answer: 1.8 µm

Question: How did the “VQIINK Inhibition IC50” value turn out when [dW][dR][dL][dW][dI][dH][dW] [wrlwihw] was run?
Answer: 1.73 µm

Question: For [dW][dR][dI][dR][dI][dR][dW] [wririrw], which “VQIINK Inhibition IC50” value is on record?
Answer: 1.73 µm

Question: For [dW][dR][dF][dK][dF][dR][dW] [wrfkfrw], which “VQIINK Inhibition IC50” value is on record?
Answer: 1.95 µm

Question: [dL][dK][dI][dR][dI][dH][dL][dH] [lkirihlh] was tested. Which “VQIINK Inhibition IC50” value did it give?
Answer: 1.81 µm

Question: [dW][dR][dL][dK][dV][dR][dW][dW] [wrlkvrww] was tested. Which “VQIINK Inhibition IC50” value did it give?
Answer: 1.97 µm

Question: How did the “VQIINK Inhibition IC50” value turn out when [dL][dK][dI][dR][dI][dH][dE][dH] [lkiriheh] was run?
Answer: 1.75 µm

Question: How did the “VQIINK Inhibition IC50” value turn out when [dW][dW][dL][dR][dI][dH][dW][dW] [wwlrihww] was run?
Answer: 1.83 µm

Question: Which “VQIINK Inhibition IC50” value does the source give for [dH][dR][dL][dK][dV][dR][dW][dH] [hrlkvrwh] here?
Answer: 1.97 µm

Question: How did the “VQIINK Inhibition IC50” value turn out when [dL][dR][dI][dR][dI][dR][dF][dH] [lririrfh] was run?
Answer: 1.84 µm

Question: For [dF][dE][dI][dR][dL][dH][dH][dW] [feirlhhw], which “VQIINK Inhibition IC50” value is on record?
Answer: 1.78 µm

Question: How did the “VQIINK Inhibition IC50” value turn out when [dW][dR][dL][dK][dV][dR][dW][dH] [wrlkvrwh] was run?
Answer: 1.92 µm

Question: With [dW][dF][dK][dI][dK][dL][dE][dL] [wfkiklel] as the binder, how does the “VQIINK Inhibition IC50” value read?
Answer: 1.74 µm

Question: For [dL][dK][dI][dR][dI][dW][dY][dH] [lkiriwyh], which “VQIINK Inhibition IC50” value is on record?
Answer: 1.89 µm

Question: How did the “VQIINK Inhibition IC50” value turn out when [dW][dK][dL][dK][dL][dR][dW][dW] [wklklrww] was run?
Answer: 1.76 µm

Question: Which “VQIINK Inhibition IC50” value does the source give for [dL][dK][dL][dE][dI][dR][dW][dH] [lkleirwh] here?
Answer: 1.76 µm

Question: Which “VQIINK Inhibition IC50” value does the source give for [dW][dR][dL][dR][dI][dW][dW][dW] [wrlriwww] here?
Answer: 1.75 µm

Question: How did the “VQIINK Inhibition IC50” value turn out when [dF][dH][dL][dE][dI][dR][dH][dW] [fhleirhw] was run?
Answer: 1.79 µm

Question: How did the “VQIINK Inhibition IC50” value turn out when [dF][dR][dL][dR][dI][dH][dW][dF] [frlrihwf] was run?
Answer: 1.81 µm

Question: With [dW][dR][dL][dR][dI][dH][dW][dW] [wrlrihww] as the binder, how does the “VQIINK Inhibition IC50” value read?
Answer: 1.88 µm

Question: With [dF][dK][dI][dH][dI][dK][dH][dY] [fkihikhy] as the binder, how does the “VQIINK Inhibition IC50” value read?
Answer: 1.77 µm

Question: For [dH][dR][dL][dK][dV][dR][dW][dW] [hrlkvrww], which “VQIINK Inhibition IC50” value is on record?
Answer: 1.77 µm
